Assay results taken from paper PMC7082061 (PLoS Pathogens, 2020).

Key:
[1] = molecular target: VSV Gth (aa residues 1-422, VSV G fragment that was previously crystallized) (vesicular stomatitis virus); assay: negative staining electron microscopy
[2] = molecular target: the molecule itself; assay: negative staining electron microscopy

VSV Gth (aa residues 1-422, VSV G fragment that was previously crystallized) (domain or fragment), sequence (P0C2X0 1-422): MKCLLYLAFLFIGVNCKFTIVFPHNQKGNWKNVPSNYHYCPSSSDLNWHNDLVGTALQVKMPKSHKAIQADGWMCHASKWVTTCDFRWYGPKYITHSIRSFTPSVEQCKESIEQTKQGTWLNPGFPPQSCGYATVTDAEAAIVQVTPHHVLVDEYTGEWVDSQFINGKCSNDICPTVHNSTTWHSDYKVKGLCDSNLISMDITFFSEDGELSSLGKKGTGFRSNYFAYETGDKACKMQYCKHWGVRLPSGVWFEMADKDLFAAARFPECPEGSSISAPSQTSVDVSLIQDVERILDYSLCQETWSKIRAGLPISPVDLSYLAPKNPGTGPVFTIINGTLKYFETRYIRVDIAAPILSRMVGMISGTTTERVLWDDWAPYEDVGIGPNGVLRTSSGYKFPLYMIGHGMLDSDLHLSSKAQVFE

Molecule	stoichiometry N [1]	stoichiometry N [2]
VSV Gth (aa residues 1-422, VSV G fragment that was previously crystallized) (domain or fragment)	3	
MOKV G_(1-436)WT (wild type Mokola virus glycoprotein G ectodomain) (domain or fragment) EFPLYTIPEKIEKWTPIDMIHLSCPNNLLSEEEGCNAESSFTYFELKSGYLAHQKVPGFTCTGVVNEAETYTNFVGYVTTTFKRKHFRPTVAACRDAYNWKVSGDPRYEESLHTPYPDSSWLRTVTTTKESLLIISPSIVEMDIYGRTLHSPMFPSGVCSNVYPSVPSCETNHDYTLWLPEDPSLSLVCDIFTSSNGKKAMNGSRICGFKDERGFYRSLKGACKLTLCGRPGIRLFDGTWVSFTKPDVHVWCTPNQLINIHNDRLDEIEHLIVEDIIKKREECLDTLETILMSQSVSFRRLSHFRKLVPGYGKAYTILNGSLMETNVYYKRVDKWADILPSKGCLKVGQQCMEPVKGVLFNGIIKGPDGQILIPEMQSEQLKQHMDLLKAAVFPLRHPLISREAVFKKDGDADDFVDLHMPDVHKSVSDVDLGLPH		3
